Reference: the nanobody polyreactivity screen of Harvey et al. (2022)

Experiment: yeast display, Sf9 membrane polyspecificity reagent, FACS + sequencing; frameworks hold sequencing errors
Procedure, shortened: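 In a synthetic yeast display library (Saccharomyces cerevisiae BJ5465), nanobody expression was induced with galactose for 36–48 hours. FACS gates were set low and high (top ~1%) using anti-HA fluorescence for expression and streptavidin fluorescence for binding of the Sf9 membrane reagent. Each polyreactivity label is drawn from the gate of origin.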

Sequence	polyreactivity (PSR sort gate)
QVQLVESGGGLVQAGGSLRLSCAASGSIFGTNAMGWYRQAPGKERELVAAIDGGSTTYYADSVKGRFTISRDNAKNTVYLQMNSLKPEDTAVYYCAADGTRYLNYEGYAGYEYWGQGTQGTVSS	low polyreactivity
QVQHVESGVGLVQAGGSLRLSCAASGRIFVFYTMGWYIQAPGKERELVARISSGGSKNYADSVKGRFTISRDNAKNTVYLQMNSLKPEDTAVYYCNAAYARGRAGYYYWGQGTQVTVSS	high polyreactivity
QVQLVDSGGGLVQAGGSLRLSCAASGYIFGDYVMGWYRQAPGKERELVASISSSGDTNYADSVKGRFTISRDNAMNTVYLQMNSLKPEDTAVYYCAAVDWIGRVHGKPWGGDYWGQGTQVTVSS	low polyreactivity
QVQLVESGGGLVQAGGSLRLSCAASGSIFTQNAMGWYRQAPGKERELVAAITSTGGSTYYADSVKGRFTISRDNAKNTVYLQMNSLKPEDTAVYYCNADGFRRAALHDYWGQGTQVTVSS	high polyreactivity
QVQLVESGGGLVQAGGSLRLICAASGLTFSGYVMAWYRQAPGKERELVAAISLSGGSTYYADSVKGRFTISRDNAKNTVYLQMNSLKPEDTAVYYCAASTRFYNSYRREYWGQGTQVTVSS	high polyreactivity
QVQLVESGGFLVQAGGSHRLSCAASGFTFQSNSMVWYRQAPGKERELVATITYSGGRTYYADSVKGRFTISRDNAKNTVYLQMNSLKPEDTAVYSCAARLAPLYRTYYYWGQGTQVTVSS	low polyreactivity
QVHLVESGGGLVQAGGSRRLSCAASGRIFSRYTMGCYRQAPGKERELVAVNTSGGSTNYADSVKGRFTISRDNAKNTVYLQMNSLKPEDTAVYYCNAVRFTYGGYLRRYDYWGQGTQVTVSS	high polyreactivity
QVQLVESVGGLVQAGGSLRLSCAASGITFYYNAMGWSRQAPGKERELVAVITSGGSTNYADSVKGRFTISRDNAKNTVYLQMNSLKPEDTAVYYCATDKSYSSWSAQYDYWGQGTQVTVSS	low polyreactivity
QVQLVESGGGLVQAGGSLRLSCAASGFTFWGYAMGWYRQAPGKERELVAGITRSGGNTYYADSVKGRFTISRDNAKNTVYLEMNSLKPEDSAVYYCAKRHFWNLTPYYFYRTIPDYYWGQGTQVTVSS	high polyreactivity
QVQLVESGGGLVQAGGSLRLSCAASGRIGTNAMGCYRQAPGKERELVAAISKRGGSTHYADSVKGRFTISRDNAKNTVYLQMNSMKPEDTAVYYCAASRAVGYDYWGQGTEVTVSS	high polyreactivity
QVQLVESGGGLVQAGGSLRLSCAASGLTFRYYAMGRNRPARGKEREVVAVITTSTGTTYYADSVKGRFTISRDNAKNTVYLQMNSLKPEDTPVYYCATDTGAYLYSMYDYWGQVTQVTVSS	low polyreactivity
QVQLVESGGGLVQAGGSLRLSCAASGSIFILYAMGWYRQAPGKERELVAAISSTGTTYYADSVKGRFTISRDNAKNTVYLQMNSLKPEDSAVYYCAADIYPDWIYLLYGYWGQGTQVTVSS	low polyreactivity
QVQLVESGGGLVQAGGSLRLSCAASGFTLFWNDMGWYRQAPGKERELVAAITSGDDTYADSVKGRFTISRDNAKNTVYLQMNSLKPEDTAVYYCNKDDPLRNVAQVILYEFYYWGQGTQVTVSS	low polyreactivity
QVQLVESGGGLVQAGGSLRLSCAASGLIFGSYAMGWYRQAPGKERELVAASSRSGGSTYYADSVKGRFTISRDKAKNSVYLQMISLKPEDTAVYYFAADDYSSEYDYWGQGTQVTVSS	high polyreactivity
QVQLVESGGGLVQAGGSLRLSCAASGFIFQQNAMGWYIQAPGKERELVAAISRSGGRTYYADSVKGRFTISRDNAKNTVYLQMNSLKPEDSAVYYCATRFYTKAFEYDYWGQGTQVTVSS	high polyreactivity
QVQLVESGGGLVQAGGSLRLSCAASGRTFNWYAMGWYRQAPGKERELVAAISSRGGSTYADSVKGRFTISRDNAKNTVYLQMNSLKPEDTAVYYCAARHHGTKYDYWGLGTQVTVSS	low polyreactivity
QVQLVESGGGLVQAGGSLRLSCAASGGIFTAYTIGWYRQAPGKERELVATITRGGSTNYADSVKGRFTISRDNAMNTVYLQMNSLKPEDTAVYYCNARVQRRGVQYYYWGHGTQVTVSS	high polyreactivity
